This is an account of results in PMC4894380.

The target of this data set is MqsA (Escherichia coli (strain of the protein …, UniProt Q46864 1-131)). As to the kind of experiment: EMSA; shift at 50-, 100- and 200-fold excess MqsA; 10 mM Tris-HCl pH 7.5, 50 mM KCl, 1 mM DTT, 1 ug poly(dI.dC), 30-50 fmol labeled probe, ambient temperature, 1 h; 6% gel, 0.5x TBE.
MqsA (Escherichia coli, sequence (Q46864 whole entry): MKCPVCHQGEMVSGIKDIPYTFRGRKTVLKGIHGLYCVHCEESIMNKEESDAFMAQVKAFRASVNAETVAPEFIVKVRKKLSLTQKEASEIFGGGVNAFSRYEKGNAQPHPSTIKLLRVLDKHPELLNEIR

B1: p-csgD native palindrome 30-mer (dsDNA)
DNA 1: ACTTAATAAAACCTTAAGGTTAACATTTTA
DNA 2: TAAAATGTTAACCTTAAGGTTTTATTAAGT
As for B1, the binding result was “binds”.
